Laboratory results published in patent publication US6558913.

Molecular target: factor Xa-activated factor V(Q506) (UniProt P12259)
Sequence of UniProt P12259 (P12259 29-737 R534Q, chain 1 of 2): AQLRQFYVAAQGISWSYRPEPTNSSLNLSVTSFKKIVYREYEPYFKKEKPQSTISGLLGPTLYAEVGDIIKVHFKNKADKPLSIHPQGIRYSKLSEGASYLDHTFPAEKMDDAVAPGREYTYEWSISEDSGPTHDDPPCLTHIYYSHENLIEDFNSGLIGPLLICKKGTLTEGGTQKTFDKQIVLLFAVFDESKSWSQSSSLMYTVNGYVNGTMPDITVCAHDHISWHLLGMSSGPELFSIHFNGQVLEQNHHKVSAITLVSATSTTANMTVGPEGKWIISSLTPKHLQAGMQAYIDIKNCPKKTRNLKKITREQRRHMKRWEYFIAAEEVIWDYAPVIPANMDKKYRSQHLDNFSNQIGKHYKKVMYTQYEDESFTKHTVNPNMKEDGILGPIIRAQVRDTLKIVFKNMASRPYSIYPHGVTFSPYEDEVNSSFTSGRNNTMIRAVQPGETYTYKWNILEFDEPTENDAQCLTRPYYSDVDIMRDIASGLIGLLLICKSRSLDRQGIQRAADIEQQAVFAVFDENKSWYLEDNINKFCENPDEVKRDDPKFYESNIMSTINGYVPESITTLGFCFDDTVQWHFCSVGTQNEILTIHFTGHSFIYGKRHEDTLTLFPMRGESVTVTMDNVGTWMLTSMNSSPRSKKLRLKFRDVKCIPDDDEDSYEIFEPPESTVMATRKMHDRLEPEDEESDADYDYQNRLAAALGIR
Sequence of UniProt P12259 (P12259 1047-2224, chain 2 of 2): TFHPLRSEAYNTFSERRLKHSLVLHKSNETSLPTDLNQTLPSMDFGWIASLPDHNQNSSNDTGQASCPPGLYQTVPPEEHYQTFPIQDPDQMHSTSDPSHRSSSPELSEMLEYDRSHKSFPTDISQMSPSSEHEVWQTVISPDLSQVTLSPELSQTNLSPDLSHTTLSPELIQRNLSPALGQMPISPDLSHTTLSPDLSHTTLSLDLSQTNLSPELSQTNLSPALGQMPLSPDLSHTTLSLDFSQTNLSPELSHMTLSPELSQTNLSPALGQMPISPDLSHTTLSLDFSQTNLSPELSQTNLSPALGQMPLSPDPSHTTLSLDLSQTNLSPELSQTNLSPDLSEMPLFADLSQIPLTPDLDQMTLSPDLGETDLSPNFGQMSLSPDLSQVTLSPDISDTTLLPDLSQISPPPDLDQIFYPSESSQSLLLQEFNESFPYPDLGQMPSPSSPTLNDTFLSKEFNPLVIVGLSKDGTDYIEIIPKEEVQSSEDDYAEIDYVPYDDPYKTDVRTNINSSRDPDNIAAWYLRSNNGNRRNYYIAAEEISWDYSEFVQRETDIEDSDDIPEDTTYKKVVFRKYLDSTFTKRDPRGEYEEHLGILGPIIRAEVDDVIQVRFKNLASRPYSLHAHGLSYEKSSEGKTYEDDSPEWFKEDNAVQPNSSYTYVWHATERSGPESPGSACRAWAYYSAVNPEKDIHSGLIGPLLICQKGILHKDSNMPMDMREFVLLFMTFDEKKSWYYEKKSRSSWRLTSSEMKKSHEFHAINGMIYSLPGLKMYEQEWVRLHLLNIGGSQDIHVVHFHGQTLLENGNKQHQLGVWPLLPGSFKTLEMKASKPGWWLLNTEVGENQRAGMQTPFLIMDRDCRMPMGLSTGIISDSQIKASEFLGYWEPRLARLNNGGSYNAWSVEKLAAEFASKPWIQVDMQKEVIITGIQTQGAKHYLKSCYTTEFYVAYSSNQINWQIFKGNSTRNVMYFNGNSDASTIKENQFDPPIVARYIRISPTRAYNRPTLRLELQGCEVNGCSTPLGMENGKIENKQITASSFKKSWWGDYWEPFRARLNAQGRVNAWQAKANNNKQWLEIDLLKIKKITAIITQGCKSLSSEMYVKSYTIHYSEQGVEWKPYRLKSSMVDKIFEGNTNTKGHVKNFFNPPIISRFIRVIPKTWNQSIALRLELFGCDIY

activated protein C
factor Va activity over time after addition of APC (inactivation by APC): the replacement of Arg-506 by Gln only prevents the inactivation of the Xa-activated form of factor V by APC (FIG. 8)
